We go through 8 molecules from patent publication US12077763B2, “RNA-based control of powdery mildew” (Greenlight Biosciences, Inc., priority 2021, dated 2024).

In this series the test system is E. necator. Description: Leaf disc assay, dry inoculum (settling tower), decrease in disease severity / hyphal growth (Example 2). As to conditions: decrease in disease severity (hyphal growth) relative to untreated control, value ± SE; for % decrease =/− SE TP1: time point 1 (untreated control hyphal growth ≥50%); for % decrease =/− SE TP2: time point 2.

B1: GS1846: dsRNA trigger SEQ ID NO 135; gene target Calcium-transporting ATPase 2 (nucleic acid)
chain: AGACCTTCGGGTACTGCTACAACAATTACAGTGACTGTCACAATGAAAATTTGCAGAAATTGCTGACCTTTAACGGTTGGTGTAGCATCATTGTTAGGTAGTCTAGCCAGAAACTCAATGAATAAGACTGTAAATAATAATAGACCAGCTCCTCCTCCAAGTTTAGCTATATACTCTGCTAAATTGTTCAATTTTGACTGTAATGGCGTGATTTCCGGATCTTCACGGAGCGACATTAATGTTTTCCCATAACTAGAGTTTACACCAGTTGAAGTAACTAAAAATGTACCCACACCTTCAGTGACAGTAGCCCCAGACAAAATAAATGGATCTAATTTTTCTAGCTTTTCGTGGTTCGAGATAGCAGCATAAACTTGGTCTGCCGGATGCTTGCGAATAATATCGGACTCGCCAGTTATTTGAGACTCATCACATCTAAGATTATGCCCTCCAATAAAAATTCCATCAACAGGAATCATGTCGCCAGGTTCAAGATGTAAAACATCGCCTACAAGAACATCATAGATGGATATTTCCGAAGTTTTCCCGGAACGAGTCACATTTACAT
Regarding B1, the “% decrease =/− SE TP1” value is listed as 22 ± 5%.

B2: GS1845: dsRNA trigger SEQ ID NO 191; gene target Singe-stranded TG1-3 DNA-binding protein (nucleic acid)
chain: CAGATACTGCCCAAACTACCTTCATAATTTTCCGAGCTACACACCAGAACCTCGAGTATTGACATTACGGAATCATCTCACCATTTAAAAGTTGCGGTTTAACTTAAGCTGTAGCCGCAACAGTTTCAGCTGTCCCAGCTAGTCCTTCTGATTGAAGTTTATCATTAGTAATCCCTTTAGCGATGGCGCCATTAGTACCTTCGGTTGAGTTGCCAACATTAGATACTTCGCCAGCACCATCAGATACATGTGTAGTTAATTCTTCAGAGGTCTTGTCCGGACTATCTATTGCGATCTTTACTGCAATCTCACGACCTTGAACTTCTTTTCCATTCATTTCGGCAACAGCCCTATTTTGAAGTTCATTAGATGCTAAGTTCACAAAGCCAAACCCACGGCCTTTCCGAGGTTCGTTGCGGGCCTGAAGCTTTTTAACCATGAATTTTGGAATAGGACGCAGAGCAATTTTGGCAGATACTGGTTCGTAATCGGCAAATAGTTCCTTTAACTTTTCCTCGGATAAGTCATAAGGAAGATTGGCAACCATAACTTTTGTCTTAGATGGAAC
In the case of B2, the “% decrease =/− SE TP1” value amounted to 23 ± 6% and the “% decrease =/− SE TP2” value came to 24 ± 6%.

B3: GS1840: dsRNA trigger SEQ ID NO 196; gene target Ubiquitin-conjugating enzyme E2-16 kDa (nucleic acid)
chain: TTGACTCTAGTTTTAAATACACATAAATGTTTGCTCAAACTATCTAGAGATTTTGCGTCTTGTAAAAAAATACTATATATGAAATATTATTGTGTACTATTGATGTATGAACTCGATGTGAGGTTTAAAATCTTATTGCTGCCATAGATAATCAAAAAATTATATTAATCCTATCCTTTTGGAACGATTCCTAATAGCAGATGTGTGTTCGTCTCTGTCCTTTGAATGACTCATTTCAGTCCAAATCTTCGTTGCTAATTCATCCACTCATTTCATAGCATATTTTTTTGTCGCTTTAACCGCCTCTTCATTAAATTCATTCCTGTTATTCCTGTATCTATCTGCTAATGCCGTTTCTACCGCATCATCAAGTACCGGCTCGGTCAGCATTTGCTGCGTTGCCATCAAAATATTGATGATTCGAGATGATGGTTTCCAGGCATCTGGTTTGAGAGCACCAATACACATACTACCCTGCTCATCAAAAGTCACATTTGGATGGTAGATACGAGTTTTGAACGATAGTTTTGGTGGCTTAAAAGGATAGTCTGAGGGGAGCGTTAAAAGAAGTTCAAAGTTA
Take B3: the “% decrease =/− SE TP1” value was determined as 21 ± 6% and the “% decrease =/− SE TP2” value came to 11 ± 10%.

B4: GS1837: dsRNA trigger SEQ ID NO 199; gene target UDP-glucose: glycoprotein glucosyltransferase 1 (nucleic acid)
DNA: AAAATCTAGGCAAATCCTTGAAAAACTCAGAGCTTTTTTTTTCAATAAAATTCAAGTCAAAAAAATTCAGATCTTTTCGATTTTCAGGAATAATCAATTTATTTCTGCGATTTATCGCTTGATTTAAAAATATACTAGGCACCCAAAAATCTTGACTTCTCACATTTTCTGTCCCAAGGACAATAGTTTGCTGAATTAATTGTAGATCTGTATATATCTGTTGACTCATTTTCTGAAGCCAGAATTCATCTTTCGGTATAACAACGCCATTAATGATAACTGGGGGAACAAGGTCATCTGCACAAATCCTGTCTACCCATTTTTGGGACGATTGAATTCGACTCTCGAGCTCATCTGATTTCAAAACTTCGTCGAAAATTATTCGGGTTTTATTAGTCTTAATTTTTGCTTTCTGGGTGATTTGGTCGAATACATCCTTACTGTTTAAGCTAAGCTTTGATTCATTTTGTGACCGTAAATATGCTATTGCAGTTTGTAATCCATAAATTTCAATAAGGTGATAAATTACTTTTGCTTCGATTGCAGCATTTGAGTTTCTGATGACGGGAATGAGACCAATTCGGAT
Regarding B4, the “% decrease =/− SE TP1” value came to 15 ± 7% and the “% decrease =/− SE TP2” value is 18 ± 8%.

B5: GS1848: dsRNA trigger SEQ ID NO 134; gene target ADP-ribosylation factor-like protein 3 (nucleic acid)
chain: CACCGCCCATAGCTCCTTCAAAAACGTGTTTGACAAATCCCTCTTTGATTCGTACCACTTCAACGCAATCTTCACGATCTTGCTTATTTGCTAATATCAACAATGGTACACCGTCAATTTCTCCATTGACCAAGACTTCCTCCAGAGCCAATCGACACTCTTCAAGGCGACCCGACTCATCATGCTCCAAATCTCCATCACCAATCTCAGTGCTATCAATGAGGAAAATAATGGCGTGGCATGATCGATAGTAAGATTTCCATAGTTTGCGAAGAGATTCCTGACCACCTACATCCCAAAGCTTAAGGTACATGTCAGGCAGCGTAATAGTGCTCACATTTTGTCCGACTGTAGGTCCCGTATTTATTTTGGGTGCAGGCGCATGAGGCAGGAACAGGAATTTAACTTGTTCGTGAAAAGTTGTCTTGCCGGCGTTATCAAGTCCCAGCAAAAGAACCGAGTATTCTTCTTTGCGCGTTGCGTAGTGGTAGAGACCCTTAACCAAATGATACATGTAGGTTTAGATCTACATAAATGGAGAAAGAAATCTTAATTAGAATGG
With B5, the “% decrease =/− SE TP1” value is 18 ± 8% and the “% decrease =/− SE TP2” value is recorded as 7 ± 8%.

B6: GS1843: dsRNA trigger SEQ ID NO 184; gene target Ubiquitin-like protein SMT3 (nucleic acid)
chain: ATAAACCTGCCTTAGATACTAAATCAGGAGTTGGCGTTTTATGGGATTCTATTAGAGTTGTAAATTTCAAAGATACTTTGATTGGATTTTCTTAGATTAACCTCGACGAGAATCGATTTTCTAGATTTTTGGCTAAATCATACGAATTCAAATTTTCTTAGTAAATTGGACAATGCGCGCCGTAAACATATCGGGATGAAATTTTTTAATAATAAAATCAATTGAAAATAATAAATTTATATCCTATTTAATCACCGCCAACAAGAAGTTCGTTTTCCTTACCTACCTAGAATTAGTTTTTAGATATCGTTCGATGTTTCGTGAATTTCAAATCCAGATGTTGCCGCCGATTTGTTCTTGATGCACCTCTAGCGTATCTCCATCTGCCATATCGAGAAACTCAGGACTATCAGTTTGTTGAACACGACTCCCTTCAAATAAGAATCGAACAGAAGAAAGTGATTTCCCTTGCCTCTCACAGAACGCGTCCATCAATTTCTTAAGTGGTGTTGTTCGTTTAATTTTGAAGAAGACTTCATTATTGTTATCTGTAACCTTGATATTTAAATGTTCA
With B6, the “% decrease =/− SE TP1” value amounted to 20 ± 5% and the “% decrease =/− SE TP2” value is recorded as 16 ± 8%.

B7: GS1839: dsRNA trigger SEQ ID NO 194; gene target Thioredoxin (nucleic acid)
chain: CTGACCGGGGCGCTATTACGATTAAATGAGCTGTTTTCCCCAGCGCTATAAGCATCCAGGGAGAATAAGGTTACAAAATATAATCCGAAAAAAGATAAAAAAGTATTTATCAATTGTTTCAAATCGAATGGCTTAGACAACTGTGTACTCGGACTCTTAGTACTCCCTAGAGTTCGTCCTTCTGAGGTATATGATAGACCTTCTAGGCCTGCAAGTCTGATGACAGACTCGATAGCAGTTCTTAAAGTAGACTGATCAGCGCCACGGATCGTATTGGCAATAGAGCCAGATCGAAAGATAATGAAGCTGGGAAGTGCTCTAACTCCATAACGCTGAGAAATATCCTGGTGATTGTCTACATTGACCTTGACAAAGGTGATCCTGTTCGGTTTCGAGTATTTGGAAGCAAGACTTTCGAAGGTGGGAGCAATAGCATTACATGGGCCGCACCAGTCGGCATAAACTAACCCAGCCATTAGTAGATTTAGTTAATCGGTGACGACTACTTTTGAAGAGTTCAAAATTTTGTCAAACTGAGATGAGGATCTGATACGGATAGACATGCTTTCTTTCTGTTCAA
Consider B7, for which the “% decrease =/− SE TP1” value stood at 20 ± 7% and the “% decrease =/− SE TP2” value stood at 18 ± 7%.

B8: GS1842: dsRNA trigger SEQ ID NO 130; gene target AP-1 complex subunit gamma-1 (nucleic acid)
chain: GCCAATGCCTTGAGCGTCTGAACAAGACTTCCAGTGAGTGGTCTAAACTTCTCTACTATATTCTCTTCACCTTCTTCATCAGCTTCTATGTCGGCCTCGCAAAGGCTAGTGACAAGTGTCAAGCCACAAAGGAGAACTCCATGATTTCGATCTGAAATAAGTGTTTCTGCTTTTTCGAAGAAATGCTCTTGAAGATCTGGCACTTTCTTGCAAATACGCATAGCACATAGAGCAGCCTTCTTACGAATATATGGGTTTGCTGTGGAAAGGAGATTTTCTATCTCTGGAAAGAGATCTCTTGACATTTCGATTGATGCGATGTTGCCTAGCGTACAGAGGGCTAGTCCGACTATGTATTGATTAGAGTGATTGAGATCGTTCTTTAAGGAGTTTGTAACTAAGGTAAGAACCTCTTGATTTTCGTCTAAAAGCAACATGGTCCCTAAGTAACCAAGGCGTTTGTCGGCGAAACGAGGAGACGCAAGTAATTTAAGGCATTCTATCTGGCCAAAGTGGGTTCTTTCCCCAAGTGTGAAGAGATATAACAACTTTGCAACGTTATTACGTCTGACATTG
On to B8, for which the “% decrease =/− SE TP1” value came to 6 ± 7%.
